# Patent publication US10865391B2, “Glutamate dehydrogenase mutants and their application in preparation of L-phosphinothricin” (ZHEJIANG UNIVERSITY, priority 2018, dated 2020)
# How the values were obtained:
# [1] = Standard enzyme activity measurement toward PPO, crude enzyme (per volume fermentation broth); type: biochemical; conditions: toward PPO; for Enzyme activity of mutants (U/mL): crude enzyme, standard system, N.D. = no detectable activity
# Protocol: The preserved recombinant E. coli is streaked onto the plate for activation. Single colonies are picked and inoculated into 5 mL LB liquid medium containing 50 μg/mL kanamycin and cultured at 37° C. for 12 h. The culture is transferred to 50 mL fresh LB liquid medium containing 50 μg/mL kanamycin at a 2% inoculum, and then incubated at 37° C. until the OD600 reaches 0.6; after that, add IPTG to a final concentration of 0.5 mM, and then proceed with induction culture under the temperature of 18° C. for 16 h.
# After the cultivation, the culture is centrifuged at 10000 rpm for 10 min; discard supernatant, and collect cells. The harvested cells are washed for 2 times using pH 7.5 50 mM phosphate buffer. After that, the cells are re-suspend into the pH 7.5 phosphate buffer and disrupted ultrasonically (400W for 30 times, Ultrasonic time is 3 s, and the interval is 7 s). The cell disrupted solution is centrifuged at 12000 g for 5 min at 4° C. to remove the precipitate, and the supernatant obtained is the crude enzyme containing recombinant glutamate dehydrogenase
# The standard enzyme activity measurement system: Appropriate amount of enzyme, 100 mM substrate, 10 mM coenzyme (NADH or NADPH), 500 mM NH4^+ ((NH4)2SO4); total system volume is up to 400 μL; reaction medium is pH 7.5 phosphate buffer. 35° C. reaction for 10 min; after that, add 40 uL 5 M NaOH to terminate reaction.
# Definition of enzyme activity unit: The quantity of enzyme as required by generation of 1 μmol L-phosphinothricin per minute under standard reaction conditions.
# Proceed with induction culture of constructed mutants, and prepare crude enzyme solution.
# [2] = Preparation of L-phosphinothricin by coupling glutamate dehydrogenase with glucose dehydrogenase; type: biochemical; conditions: 500 mM PPO, NAD+, GluDH cells 1.25 g/L
# Protocol: The reaction process is monitored by measuring the concentration of substrate in the reaction solution applying high-performance liquid chromatography (HPLC). HPLC analysis method is stated as follows: column model: Pntulips® QS-C18, 5 μm, 4.6 mm×250 mm. Mobile phase: 50 mM (NH4)2HPO4, added 1% of 10% tetrabutyl ammonium hydroxide, adjusted to pH 3.6 with 50% phosphoric acid(mass fraction), added 8% acetonitrile. Detective wave length is 205 nm; flow rate is 1.0 mL/min. Column temperature is 40° C.
# The enantiomeric excess and concentration of product are determined through pre-column derivatization high-performance liquid chromatography; the specific analysis method is stated as follows:
# (1) HPLC condition: column model: Pntulips® QS-C18, 5 μm, 4.6 mm×250 mm. Mobile phase: 50 mM Sodium acetate: Acetonitrile=8: 0.5 (v/v). Detective wave length: 338 nm. Flow rate: 0.85 mL/min. Column temperature: 30° C.
# (2) Derivatization reagent: Weigh 0.03 g phthalaldehyde and 0.1 g N-acetyl-L-cysteine, and use 400 uL ethanol for solubilization; after that, add 4 mL 0.2 mol/L borate buffer (pH 9.8) and shake for dissolution prior to storage in the fridge under the temperature of 4° C. (no more than 4 days).
# (3) Derivatization reaction and analysis: Add 150 μL derivatization reagent into 100 μL sample, mix and incubate at 25° C. for 5 min, and then inject 20 μL for analysis.
# Culture recombinant E. coli expressing glutamate dehydrogenase (PpGluDH) and glucose dehydrogenase (BsGDH-2M, SEQ ID NO. 21) with method in Step 3 of Embodiment 1; proceed with centrifugal collection of cells and ultrasonic cell disruption to prepare crude enzyme solution.
# (§1) The final volume of the reaction is 30 mL; each sample contains 500 mM substrate PPO, 600 mM glucose, 250 mM (NH4)2SO4 and 0.5 mM NADP^+. Concentration of glutamate dehydrogenase cells (dry weight) is 1.0 g/L; concentration of glucose dehydrogenase cells (dry weight) is 1.25 g/L. Use water bath to control the reaction temperature at 35° C.; titrate ammonia to control pH at 7.5 during the reaction process. Use non-chiral HPLC to determine residual concentration of PPO after reaction for 6 h; meanwhile, use pre-column derivatization HPLC to determine the concentration and ee value of formed L-phosphinothricin.
# as §1, with “0.5” for “1.0”
# as §1, with “NAD^+.” for “NADP^+.”, “1.25” for “1.0”
# The final volume of the reaction is 30 mL; each sample contains 500 mM substrate PPO, 600 mM glucose, 250 mM (NH4)2SO4 and 0.5 mM NAD^+. Concentration of glutamate dehydrogenase cells (dry weight) is 1.25 g/L; concentration of glucose dehydrogenase cells (dry weight) is 1.25 g/L. Use water bath to control the reaction temperature at 35° C.; titrate ammonia to control pH at 7.5 during the reaction process. […]
molecule,measurement,setting,value
"PeGluDH-A164G: PeGluDH mutant A164G, SEQ ID NO. 5 (protein, Pseudomonas entomophila glutamate dehydrogenase mutant) MIESVDHFLARLQQRDPAQPEFHQAVEEVLRSLWPFLEQNPHYLEAGILERMVEPERAVLFRVSWVDDQGKVQVNRGYRIQMSSAIGPYKGGLRFHPSVNLGVLKFLAFEQVFKNSLTSLPMGGGKGGSDFDPKGKSDAEVMRFCQAFMSELYRHIGADLDVPGGDIGVGAREIGFLFGQYKRLANQFTSVLTGKGMTYGGSLIRPEATGYGCVYFAEEMLKRQEQRIDGRRVAISGSGNVAQYAARKVMDLGGKVISLSDSEGTLFCEAGLTDEQWDALMELKNVKRGRISELAGRFGLEFRKGQTPWSLACDIALPCATQNELNADDARTLLRNGCICVAEGANMPTTLDAVDIFIEAGILYAPGKASNAGGVAVSGLEMSQNAMRLLWTAGEVDSKLHHIMQSIHHVCVHYGEEADGRINYVKGANIAGFVKVADAMLAQGVV",Fold change,[1]; enzyme activity of mutant versus wild type,110
same,Enzyme activity of mutants (U/mL),[1],11.29 U/mL
"BtGluDH-A155G: BtGluDH mutant A155G, SEQ ID NO. 19 (protein, Brevibacillus thermoruber glutamate dehydrogenase mutant) MVTENTQGKEQKQESMNLLQSTQTVIKEALEKLGYQESMYELLKEPLRVLTVRIPVRMDNGEVKVFTGYRAQHNDAVGPTKGGIRFHPDVTEDEVKALSIWMSLKAGIVDLPYGGGKGGIICDPREMSFRELERLSRGYVRAVSQIVGPTKDIPGPDVFTNSQIMAWMMDEYSRIREFDSPGFITGKPIALGGSHGRETATAKGVTICIREAAKRRGIDLKGARVVVQGFGNAGSYLSKFMHDAGAKVVGISDAYGALYDPNGLDIDYLLDRRDSFGTVTKLFTNTITNKELLELDCDILVPAAIENQITAANAHNIKAKIVVEAANGPTTLEATKILTERGILLVPDVLASAGGVTVSYFEWVQNNQGYYWSEEEVQEKLEKVMVKAFENVYSLAQTRRVDMRLAAYMVGVRKMAEASRFRGWV",Enzyme activity of mutants (U/mL),[1],0.50 U/mL
same,concentration of formed L-phosphinothricin,"[2]; 50° C., pH 7.5, 6 h",80.3 g/L
same,residual PPO,"[2]; 50° C., pH 7.5, 6 h",1.4 mM
same,substrate conversion,"[2]; 50° C., pH 7.5, 6 h",99.7%
"CsGluDH-A164G: CsGluDH mutant A164G, SEQ ID NO. 17 (protein, Clostridium symbiosum glutamate dehydrogenase mutant) MSKYVDRVIAEVEKKYADEPEFVQTVEEVLSSLGPVVDAHPEYEEVALLERMVIPERVIEFRVPWEDDNGKVHVNTGYRVQFNGAIGPYKGGLRFAPSVNLSIMKFLGFEQAFKDSLTTLPMGGAKGGSDFDPNGKSDREVMRFCQAFMTELYRHIGPDIDVPGGDLGVGAREIGYMYGQYRKIVGGFYNGVLTGKARSFGGSLVRPEATGYGSVYYVEAVMKHENDTLVGKTVALAGFGNVAWGAAKKLAELGAKAVTLSGPDGYIYDPEGITTEEKINYMLEMRASGRNKVQDYADKFGVQFFPGEKPWGQKVDIIMPCATQNDVDLEQAKKIVANNIKYYIEVANMPTTNEALRFLMQQPNMVVAPSKAVNAGGVLVSGFEMSQNSERLSWTAEEVDSKLHQVMTDIHDGSAAAAERYGLGYNLVAGANIVGFQKIADAMMAQGIAW",Enzyme activity of mutants (U/mL),[1],2.61 U/mL
same,concentration of formed L-phosphinothricin,"[2]; 35° C., pH 7.5, 6 h",79.6 g/L
same,residual PPO,"[2]; 35° C., pH 7.5, 6 h",0 mM
same,substrate conversion,"[2]; 35° C., pH 7.5, 6 h",100%
"CsGluDH-V378A: CsGluDH mutant V378A, SEQ ID NO. 18 (protein, Clostridium symbiosum glutamate dehydrogenase mutant) MSKYVDRVIAEVEKKYADEPEFVQTVEEVLSSLGPVVDAHPEYEEVALLERMVIPERVIEFRVPWEDDNGKVHVNTGYRVQFNGAIGPYKGGLRFAPSVNLSIMKFLGFEQAFKDSLTTLPMGGAKGGSDFDPNGKSDREVMRFCQAFMTELYRHIGPDIDVPAGDLGVGAREIGYMYGQYRKIVGGFYNGVLTGKARSFGGSLVRPEATGYGSVYYVEAVMKHENDTLVGKTVALAGFGNVAWGAAKKLAELGAKAVTLSGPDGYIYDPEGITTEEKINYMLEMRASGRNKVQDYADKFGVQFFPGEKPWGQKVDIIMPCATQNDVDLEQAKKIVANNIKYYIEVANMPTTNEALRFLMQQPNMVVAPSKAVNAGGALVSGFEMSQNSERLSWTAEEVDSKLHQVMTDIHDGSAAAAERYGLGYNLVAGANIVGFQKIADAMMAQGIAW",Enzyme activity of mutants (U/mL),[1],1.76 U/mL
same,concentration of formed L-phosphinothricin,"[2]; 35° C., pH 7.5, 12 h",78.5 g/L
same,residual PPO,"[2]; 35° C., pH 7.5, 12 h",1.8 mM
same,substrate conversion,"[2]; 35° C., pH 7.5, 12 h",99.6%
